US5969107
Where “and” joins values, the source holds several entries; their conditions need not be identical. Identical values can stand only once.

B1: 5A6 monoclonal anti-idiotypic antibody (Ab2) (antibody, V domains shown)
VH: DVKLVESGGGLVKLGGSLKLSCAASGFTFSNYYMSWVRQTPEKRLEFVAAINSNGGSTYYPDTVKGRFTISRDNAKNTLYLQMSSLKSEDTALYYCARHRGRDSSGYVGYAIDYWGQGTSVTVSS
VL: DILLTQSPAILSVSPGERVSFSCRASQSIGTSIHWYQQRTNGSPRLLISILLSLSLGVPSRFSGSGSGTDFTLSINSVESEDIADYYCQQSNSWPYTFGGGTKLEIKR
B2: 15H8 monoclonal anti-idiotypic antibody (Ab2) (antibody, V domains shown)
VH: EVQLVESGGGLVKPGGSLKLSCAASGFTFSDYYMYWFRQHPGKRLEWVATISDAGTYTYYPDSLKGRFTISRDNAKNNLYLQMSSLKSEDTAMYFCARDGAARTSSQVYYYGMDYWGQGTSVTVSS
VL: DIVMTQSQKFMSTSVGDRVSITCKASQNVRTAVAWYQQKPGQSPKALIYLASNRHTGVPDRFTGSGSGTDFTLTISNVQSEDLADYFCLQHWNYPLTFGSGTKLEIKR

What was measured:
[1] = molecular target: murine monoclonal anti-EGFR antibody mAb 425 (ATCC HB 9629); assay: competition ELISA in solution by the method of Friguet, Scatchard plot
[2] = molecular target: Anti-EGFR Ab3 sera from Balb/c and B6D2F1 mice; assay: inhibition ELISA: anti-EGFR Ab3 sera preincubated with the Anti-Id, then on coated sEGFR
[3] = molecular target: murine monoclonal anti-EGFR antibody mAb 425 (ATCC HB 9629); assay: inhibition CellELISA on fixed A431 cells; reference 5A6 and 3B6

Row | Kd [1] | percentage of inhibition [2] | times more effective in inhibition than 5A6 and 3B6 [3] | Binder
1 | 1 nM | 100% |  | B1
2 | 0.3 nM | 15% and 35% | 10 times | B2
